Test: label from the status in PepcDB records

Sequence	protein production
MSNSSMSVVILAAGKGTRMYSDLPKVLHPLAGKPMVQHVIDAAMKLGAQHVHLVYGHGGELLKKTLADPSLNWVLQAEQLGTGHAMQQAAPHFADDEDILMLYGDVPLISVDTLQRLLAAKPEGGIGLLTVKLDNPSGYGRIVRENGDVVGIVEHKDASDAQREINEINTGILVANGRDLKRWLSLLDNNNAQGEFYITDIIALAHADGKKIATVHPTRLSEVEGVNNRLQLSALERVFQTEQAEKLLLAGVMLLDPSRFDLRGELTHGRDITIDTNVIIEGHVILGDRVRIGTGCVLKNCVIGDDSEISPYTVLEDARLDANCTVGPFARLRPGAELAEGAHVGNFVEIKKARLGKGSKAGHLSYLGDAEIGAGVNIGAGTITCNYDGANKFKTIIGDDVFVGSDTQLVAPVTVANGATIGAGTTVTRDVAENELVISRVKQVHIQGWKRPVKKK	not failed
MSNVLIINAMKEFAHSKGALNLTLTNVAADFLRESGHQVKITTVDQGYDIESEIENYLWADTIIYQMPAWWMGEPWILKKYIDEVFTDGHGRLYQSDGRTRSDATKGYGSGGLIQGKTYMLSVTWNAPREAFTDPEQFFHGVGVDGVYLPFHKANQFLGMKPLPTFMCNDVIKQPDIEGDIARYRQHLAENVNS	not failed
MSNVRVLATDLAFPEGPVVMPDGSVVLVEIRAQQLTRVWPDGRKEVVAKVPGGPNGAALGPDGKMYICNNGGFGWFPSRGTMMPGAPAPHEYIGGSIQRVDLQSGEVETLFDKCGEHPLKGPNDLVFDKHGGLWFTDLGKRRARDMDVGAAYYIKPGMTEITEQVFGTLPLNGIGLSPDEATMYAAETPTGRLWAFDLSGPGEVKPRDVIYRGEKGKPICGLGGYQMFDSLAVEASGNVCVATLVSGCISVIAPDGTLVEQVPTGDRVTTNIAFGGPDLKTAYITLSGKGELIAMDWSRPGLPLNFLNKLEHHHHHH	failed
MSNWPYPRIVAHRGGGKLAPENTLAAIDVGAKYGHKMIEFDAKLSKDGEIFLLHDDNLERTSNGWGVAGELNWQDLLRVDAGSWYSKAFKGEPLPLLSQVAERCREHGMMANIEIKPTTGTGPLTGKMVALAARQLWAGMTPPLLSSFEIDALEAAQQAAPELPRGLLLDEWRDDWRELTARLGCVSIHLNHKLLDKARVMQLKDAGLRILVYTVNKPQHAAELLRWGVDCICTDAIDVIGPNFTAQ	not failed
MSPAIITLLILVVAIIIFISDRLPMGLVAFMVPMALYFFGVIGVKDIFASIVNENVILIIAMCVLGAAFFKTGLAWQSSKILLKYAKTERSLSVLIFMISGVMSAFVSNSGTVAVLIPIVLGIAGTSQIKPIKLLMPLVFGATIGADISIIGSPGNLIAKNTIETFSKGNLSVPFFEYAKIGIPLMIACALLLFFFGSRLIPDRDGHEQSDVQMDYSHIPEWHKLLTLIVFVLAILGMVATDYVKFLPPIHIIACCAAIVLVLTGVLNQKETFNSFETLTVFMLAFMMPLGAALNSTGAGEMIARAVISVTGNSGVIVIMASLWILTWALTQVMSNTAACTLLCPVGWTIAQSIGADPRAVVIAIFIASSVAVCTPMAIPANSMIIGPGNVKFKDFLKPGLAISFVCFIVSMILLPVFYPFY	failed
MSPFLRIGLSNFDCGSCQSCQGEAVNPYCAVLVKEYVESENGQMYIQKKPTMYPPWDSTFDAHINKGRVMQIIVKGKNVDLISETTVELYSLAERCRKNNGKTEIWLELKPQGRMLMNARYFLEMSDTKDMNEFETEGFFALHQRRGAIKQAKVHHVKCHEFTATFFPQPTFCSVCHEFVWGLNKQGYQCRQCNAAIHKKCIDKVIAKCTGSAINSRETMFHKERFKIDMP	failed
MSPIARAALWMTGAIASFSAMAVAGRELSAVHDTFEIMMYRSFVGVLVVSLILSVTGTWHQVSTRALGLHALRNAVHFTGQNLWFFAVTVIPLAQVFALEFTQPLWVILLSPLLLGERMTRVRVAAAVIGFVGILIVARPGASSLNIGILTAALSAIFFAMTTISTKKLTRLASIGCIMFWLTVMQAVLGLVASGHDGQIALPTLGTAPYLVLVGLAGLLAHYCITNALAIAPATVVVPIDFARLPTIAVVGMLLYGEALDIWVLVGAAVIFAGNYLNILAETRNTAR	failed
MSPIEKSSKLENVCYDIRGPVLKEAKRLEEEGNKVLKLNIGNPAPFGFDAPDEILVDVIRNLPTAQGYCDSKGLYSARKAIMQHYQARGMRDVTVEDIYIGNGVSELIVQAMQALLNSGDEMLVPAPDYPLWTAAVSLSSGKAVHYLCDESSDWFPDLDDIRAKITPRTRGIVIINPNNPTGAVYSKELLMEIVEIARQHNLIIFADEIYDKILYDDAEHHSIAPLAPDLLTITFNGLSKTYRVAGFRQGWMVLNGPKKHAKGYIEGLEMLASMRLCANVPAQHAIQTALGGYQSISEFITPGGRLYEQRNRAWELINDIPGVSCVKPRGALYMFPKIDAKRFNIHDDQKMVLDFLLQEKVLLVQGTAFNWPWPDHFRIVTLPRVDDIELSLSKFARFLSGYHQL	failed
MSPPRDLPTLGRNTIPIPEFEMTRRNSKPGVRLLSVLVALGMAAPALAQAVTEPVTQPAIYPTPVSITLDGATIALGRSVVLVVAPGADKATVALVRSILSSAGVTKMATATRLPATLDRPHIVLGTGDAAVVRDALARSKARQDTHKEGYTLASVALDGGSLITLAGHDDDGLFHAAQTLRQLVERPAIPTLTIHDYPAMPIRGTIEGFYGAPWSMSDRSKHIDFLARTKANTFIYSPKDDPYARDRWRAPYPKATLKALGQLAATAKRNHVDFVYAISPGPTVCFSDPADAKALLRKFDAFRALGVRSFYVALDDIEYTKWNCERDKTAFGESGAQAAGIAQSHLLNLVQADLVARHDATSELIMVPTEYYDAKESPYKEALRKHLDPKIVVQWTGTDVVPPAISIPDARAATKAFGRKTLLWDNYPVNDFETSAGRLLMAPYARREAGLSAELSGIVSNPMNQEVPSRVAVMGLTAFAWNDKDYDAQRTWHAAARDLAGGDARVTAALLIFFDTQHLAPTFGSQPWQEQAPRLKAVLDHVREAIALGDAAARTQAIAELARTADEMAAAPQIIRDSVADKGFAKQSRPWLEAMEVWGGALQKTAAGLDAANRGDTQAPALFAEAAAHAAVAAVVPSIPGATRFDGPVKIADGVLDRFIAQAPRLIAYRVPAVADSAAAK	failed
MSPRSIAMCGRCGIRARHSVAPDCCLSVRQATNKCPAVEHHSHGGRRPCTANGGVAFDRFVMTNRFSPRARSTRIVSKVVWRKRSGRDDENKKTRGEHDMSASVQSALSGLVLAAAVAMPALADGLKDEIAPTGKLRVAIAISPAGGAFWSTRTETGYAGVPVDLGKEMAAQLGVGVEYVVHQNSGQITDAASKGTWDVTWLPKDPERESKMMFGPIYEVADATYIVKAGSNVTSFASLDQPGIKVAAVNATTTMRGAVAHLRNAEVTGYQTYDEIFGLLKSGEIDAFALSRDQLNKMAQKIPGTKVLDETFKKTVTAVAVPLGHSLALTFVTKFMNEATINGTLRKAYDNNGLKDSPIRTE	failed
MSQAHAAQRPNGAKEPANPTQGGRKAIIAAASANLAIAVTKAIAWALTGASSMLAEAIHSVADTANQVVLMMGGKESHKEADEDHPFGYETARYLSGFIVAIVIFTLGGLFALYEAYHKIGATLGGHPDELLDSQWWWVPLAVVMISLCAEGASLRTALKESSQDREGMTILQYIRKAKAPELPVVMLEDSAAVLGLIFAFLGVGLTLLTHNPIFDGIGSACIGILLVVVAGVLSREMKSLLEGESAAPESRKAVYDALIHSDGVDSVIYMKTVHLGPETILLAAKIAVDPTDSAFEVARIIDNAEASVRAAEPLVGPLFLEPDIRYGDKRIKDGEERPEDQS	failed
MSQALPVRDQGRDQGIFAGTLPPAPPKFKWTRLDTYTWAIIAVFALVTRFTGLSSATASGTPVFDEKHYVPQAWDMVRSWINPITGGIESNPGYGLVVHPPLAKQLEALGEWVFGYTPLGWRIMVAIFGTLTIFAIMAIARRLSGSTMVTFIAGILALADGVLLVSSRFGMLDIFLVFFITAAAWALIRDHQQMHQRLNDLLLTNGQITKDFGPRFGFRWWRFTTGVFLGLALSVKWSGLYYIAFFGLTSVFLDLWLRKRYGVRRYVTGTLKNDVIPALGSLVIIPALLYIWSWRAWFASETSVYRHAKTDGTITEDSILQLFPESIAGWIHYHISVLEFHGSLTTSSGHSHPWDSKPWAWLVSGRPILYFSSTDISCDVGGTCRRMIYLFGTPAIWWLTVPVILWALWSFFARRSRGYVVPLVAFAAGFLPWLAAYDRQMYFFYATALVPFTIIMLALACGELWGRGKMTPTGLTRGSMAVVTYISLVVMMFLAFSPLFYGFVIPDYVYESLMWFPSWR	not failed
MSQELKNKVQFLAKELNQLVNILYEESKKQTPLTLWLLCKNTFVYLYRTVKTVRGVAGVLLVLVPGSLMAYTTDAFRAIGELPWTSITVLLGGMSFFLFAYLRHLVLDEMSRPGSDLFHIQVYEKRKPDEYMSLIALAKERDYVESIAADIEQVTSTPSLPNLLELLKEKEQDIEEKDRVIEDLLEIVEDNEEHTLMFKEKYEILLDFVFQLKSKLNLLVHDQFSLDSIDFGSDYSLYKVGEEGLEFVDSYGVNKAEMEDFIPFTEKGNPYILAIERDYKDPLKVGDLISWKRTLQDGSQWVLSLHLNENSREKLNDVTESGKLNVTITQELLWICCELLNKFSPNPTKKGEE	failed
MSQFPLISVMTFLPLLGVVLLFFVPKQSHSVHRMLALLVSLVTFVVSIPLVTGFQSNADFQFVEKMPWIAAGPFQMNYHVAIDGISLWLVLLTTFIMPIAILSTWTAVEEKVKEYMICLLLLEVGMLGAFVSLDLFLFYIFWEVMLIPMYFIIGIWGGKNKIYAAVKFFIYTMVGSMLMLVALVTLYFKAGAGDFNVLRFYEVTLDPATQVWMFLAFALAFAIKVPMFPLHTWLPDAHTEAPTAGSVILAAVLLKMGTYGFVRFAMPLFPDATDKFTPLIATLSVIGIIYAALVAMVQEDVKKLVAYSSVAHLGYVMLGVFALNLQGLSGGMLQMLNHGVSTGALFLIVGFIYERRHTRLITDFGGLAKQMPVFATIFMIVTLSSIGLPGTNGFVGEFLVLLGAFESELRWYAVIGTSGVILAAVYMLWMFQRVMFGELTNPKNQTLCDLNAREVGIMLPLLVLIFVMGVYPTPFIEKMSPSLEKLIVHVKTKQQGAVAQVETVPAAPQVMPAAAVVPAEHK	failed
MSQFPNRAALWLNKLAPDAPLMSGLCPSVQVTDGQINGESVRFIAVVPDANNHYPRAAGGEVGLLEGWTLAKVVNETIAADADRPVKRPIVAVIDVPSQAYGRREEAFGIHQALAGAAGAYAKARLAGHPVIGLIVGKAMSGAFLAHGYQANRLIAFNDSGVLVHAMGKASAARITLRTVEALEKLAATIPPMAYDVSNYATLGLLSALLDISNPDAPDEGDLSLVSRTLRDAIADARTDTSLKCRLGAENRRSSQLVRDRMRASW	failed
MSQFQEVRPVAQALYPTHPSTKDALEEARLLLPGGTHHDFMRALMGYHNTLVKVMEEQC	not failed
MSQIFVVFSSDPEILKEIVREIKRQGVRVVLLYSDQDEKRRRERLEEFEKQGVDVRTVEDKEDFRENIREIWERYPQLDVVVIVTTDDKEWIKDFIEEAKERGVEVFVVYNNKDDDRRKEAQQEFRSDGVDVRTVSDKEELIEQVRRFVRKVGSLEHHHHHH	not failed
MSQILIGVGWVLFTVLLYQLSKKIYKLFPTPFTIPMLVATGLMAFLFIVLDIPYQHYMESGGGWIAKLLGPGVVAFAIPLYKQRHVLQKYVVPIAGGVLVGTTVAIASDFAIASLMGTDKSLILSSLPKSVTMPVAMSVSEQVGGVPSLTAAFVVIAGITGTITGPLLLKWSRVTNSVGKGIGFGCASHIMGVMRAMKNNEHEGVIGSVTMTLTAILTCLLGPLFAMMFM	failed

Reference: a protein production outcome set (Wang et al. 2014)
